US20090075921A1, “Bone/joint disease sensitivity gene and use thereof” (Riken, priority 2004, published 2009)

Legend:
[1] = molecular target: T1, TGF-β1 (Homo sapiens, UniProt P01137); experiment: Binding assay of asporin and TGF-β by pull-down assay method; settings: S-Protein agarose precipitate, Western blotting
Protocol: With the pET29b-ASP13 and pET29b-ASP14 thus prepared as the templates, S-tagged human asporin D13 and D14 were prepared by performing a reaction in the presence of Transcend™ Biotin-Lysyl-tRNA using TNT Quick Coupled Transcription/Translation Systems (Promega). A reaction mixture comprising S-tagged human asporin D13 or D14 (10 μl) and TGF-β1 (0.1 μg) were mixed in buffer A (50 mM Tris (pH 7.5), 150 mM NaCl, 1% Triton X-100, complete protease inhibitor cocktail tablets (Roche)) at 4° C. for 1 hour, S-Protein agarose (Novagen, 12.5 μl) was added, and the mixture was further incubated at room temperature for 30 minutes. The precipitated resin was washed with buffer A five times, after which SDS-PAGE was performed under reducing conditions. S-tagged human asporin in the precipitate was detected by Western blotting using streptavidin-HRP (R&D Systems), and TGF-β1 was detected by Western blotting using biotinylated anti-TGF-β1 antibody (Genzyme). As a result of an examination of the binding of human asporin and TGF-β by the method described above, a band of TGF-β1 was detected in the precipitate comprising S-tagged human asporin D13 or D14 (FIG. 17).
Using the recombinant mouse asporin purified by the method described in Example 31, its capability of binding with TGF-β1 was examined by the method described in Example 22 (pull-down assay method); as a result, it was confirmed that TGF-β1 was detected in the precipitate of purified mouse asporin (FIG. 26).

[2] = test system: ATDC5 cells; experiment: Purified recombinant mouse asporin on TGF-β1-stimulated aggrecan and type II collagen gene expression in ATDC5; format: cell-based; settings: TGF-β1 10 ng/ml, 18 hours, corrected by GAPDH
Protocol: ATDC5 cells were inoculated to a 12-well plate at […], and cultured in a medium 1-2 (a DMEM/F12 medium containing 5% FBS, ITS (Sigma), penicillin (100 U/ml) and streptomycin (100 μg/ml)) for 2 days. Purified mouse asporin diluted with a medium 1-2 containing 0.2% FBS was added to the cells, and the cells were further cultured for 12 hours, after which TGF-β1 (10 ng/ml) was added, and the cells were further cultured for 18 hours, after which total RNA extraction, purification, cDNA synthesis, and real-time PCR were performed in the same manner as Example 18. At this time, the expression levels of the aggrecan and type II collagen genes were corrected by the expression level of the […] (GAPDH) gene.

[3] = molecular target: T1, TGF-β1; experiment: Binding assay of purified recombinant mouse asporin and TGF-β by microplate assay method; settings: biotinylated mouse asporin, TGF-β1-coated plate, OD405
Protocol: (§1) A binding assay was performed using the method described in Example 24 with a partial modification as described below. To a Maxisorp 96-well microplate of Nunc, a 1 μg/ml TGF-β1 solution prepared with 0.05M sodium carbonate buffer (pH 9.6) was dispensed at 100 μl/well, and the microplate was coated with TGF-β1 at 4° C. overnight. The TGF-β-coated wells were blocked in 200 μl/well of Block Ace at 37° C. for 3 hours. Next, mouse asporin and biotinylated mouse asporin, diluted with Block Ace, were added to obtain a total volume of 100 μl per well, and the microplate was incubated at 4° C. overnight. The wells were washed with […] of TBST three times, after which streptavidin-alkaline phosphatase (Novagen) diluted 1000 fold with TBST was added at […], and the microplate was incubated at room temperature for 1 hour. The wells were washed with 400 μl/well of TBST five times, and then colored using an alkaline phosphatase substrate kit (BIO-RAD), and the absorbance at 405 nm was measured using Ultramark Microplate Imaging System (BIO-RAD).

[4] = test system: Smad2 phosphorylation in ATDC5 cells; experiment: TGF-β1-stimulated Smad2 phosphorylation in ATDC5 cells (Western blotting); format: cell-based, mouse; settings: TGF-β1 10 ng/ml, 5 minutes
Protocol: ATDC5 was inoculated to a 12-well plate, and cultured using the medium 1-2 described in Example 19 until the cells became confluent, after which the medium was exchanged with the same medium but containing 0.2% FBS; 4 hours later, asporin was added. 12 hours later, TGF-β1 (10 ng/ml) was added; 5 minutes later, the cells were lysed with the M-PER reagent (PIERCE). Using this cell extract, SDS-PAGE was performed, and according to the protocol attached to an antibody product of Cell Signaling Company, Western blotting was performed. As the primary antibodies for detection of phosphorylated Smad2 and Smad2 protein, phospho-Smad2 antibody (Cell Signaling) and rabbit anti-Smad2 (Zymed Laboratories) were used, respectively. As the secondary antibody, anti-rabbit IgG-HRP (Cell Signaling) was used.

[5] = test system: ATDC5 cells; experiment: MTT assay of ATDC5 cell growth; format: cell-based, mouse
Protocol: ATDC5 was inoculated to a 12-well plate at 0.4×10^5 cells/well, and cultured using the medium 1-2 described in Example 19 for 24 hours, after which asporin and bFGF were added, and MTT assay was performed over time as described below. Specifically, the medium was removed by suction, the 1 mg/ml MTT reagent (DOJINDO) dissolved in DMEM/F12 was added at 1 ml/well, and the plate was incubated in a CO2 incubator for 1 hour. The supernatant was removed by suction, a Lysis reagent (86% isopropanol, 40 mM HCl, 1% SDS) was added to the plate at 0.2 ml/well, and extraction was performed at room temperature for 5 minutes. This extract was transferred to a 96-well plate, and OD550 was measured using a plate reader.

[6] = molecular target: bFGF (Homo sapiens, UniProt P09038); experiment: Binding assay of mouse asporin and bFGF by microplate assay method; settings: bFGF-coated plate, OD405
bFGF, sequence (P09038 134-288 limits assumed, species assumed): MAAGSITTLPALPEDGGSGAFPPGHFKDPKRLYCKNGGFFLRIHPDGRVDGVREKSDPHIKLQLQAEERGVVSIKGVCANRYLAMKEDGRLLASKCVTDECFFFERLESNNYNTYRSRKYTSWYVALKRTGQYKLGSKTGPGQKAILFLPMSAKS
Protocol: as §1
A binding assay was performed in the same manner as Example 34 except that the microplate was coated with bFGF solution in place of 1 μg/ml TGF-β1.

[7] = test system: NHAC; experiment: MTT assay of TGF-β1-stimulated cell growth in NHAC; format: cell-based, human; settings: TGF-β1 40 ng/ml with asporin 5 or 20 μg/ml, 5 days
Protocol: NHAC was inculated to a 12-well plate at 1×10^5 cells/well, and cultured in a DMEM/F12 containing 10% FBS supplemented with TGF-β1 (40 ng/ml) and asporin (5 or 20 μg/ml) for 5 days, after which the degree of cell growth was examined by the MTT assay method described below. Specifically, 3-(4,5-dimethyl-2-thiazolyl)-2,5-diphenyl-2H-tetrazolium bromide (MTT, Dojindo Laboratory) was dissolved in DMEM/F12 to obtain a concentration of 1 mg/ml, the solution was added to the cells after the medium was removed by suction, and the cells were cultured at 37° C. for 1 hour. Thereafter the medium containing MTT was discarded, and the cells were subjected to extraction treatment using a Lysis reagent (86% isopropanol, 40 mM hydrochloric acid, 1% SDS). This cell lysate was transferred to a 96-well plate, and the absorbance at 550 nm was measured using a microplate reader.

T1 sequence (P01137 279-390 limits assumed, species assumed): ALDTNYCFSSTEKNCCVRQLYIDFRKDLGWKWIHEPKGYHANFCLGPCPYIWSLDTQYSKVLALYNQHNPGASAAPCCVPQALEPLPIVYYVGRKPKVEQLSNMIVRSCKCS

B1: purified mouse asporin: recombinant mouse asporin expressed in Escherichia coli, refolded from insoluble fraction and purified by gel filtration (protein)
chain: DMEDTDDDDNDDDDNSLFPTKEPVNPFFPFDLFPTCPFGCQCYSRVVHCSDLGLTSVPNNIPFDTRMVDLQNNKIKEIKENDFKGLTSLYALILNNNKLTKIHPKTFLTTKKLRRLYLSHNQLSEIPLNLPKSLAELRIHDNKVKKIQKDTFKGMNALHVLEMSANPLENNGIEPGAFEGVTVFHIRIAEAKLTSIPKGLPPTLLELHLDFNKISTVELEDLKRYRELQRLGLGNNRITDIENGTFANIPRVREIHLEHNKLKKIPSGLQELKYLQIIFLHYNSIAKVGVNDFCPTVPKMKKSLYSAISLFNNPMKYWEIQPATFRCVLGRMSVQLGNVGK
modifications: left off: small tags and cut ends
For B1, the “binding to TGF-β1 (pull-down)” value [1] was “bound to TGF-β1 in vitro”, the “suppression of the TGF-β1-stimulated expression of the aggrecan and type II collagen genes” value [2] was “observed depending on the amount of purified mouse asporin added” and the “binding to TGF-β1 (microplate)” value [3] was “bound to TGF-β1 concentration-dependently and specifically”. The “Smad2 phosphorylation by TGF-β1 stimulation” value [4] was “suppressed the Smad2 phosphorylation by TGF-β1 (10 ng/ml) stimulation concentration-dependently”, the “growth of ATDC5 cells (MTT, OD550)” value ([5]; added alone, medium 1-2) was “suppressed the growth of ATDC5 cells concentration-dependently” and the “growth suppressive effect of bFGF on ATDC5 cells” value ([5]; addition of asporin 10 μg/ml) was “enhanced”. For the same molecule, the “binding to bFGF (microplate)” value [6] was “bound to bFGF concentration-dependently and specifically” and the “cell growth of NHAC (MTT, absorbance at 550 nm)” value [7] was “suppressed concentration-dependently”.
